Laboratory results: patent publication US20090136516A1 (DUKE UNIVERSITY, published 2009)

Columns and labels:
mouse CD20 [1] = target: T1, mouse CD20 (mouse, UniProt P19437 1-291); assay: flow cytometry, mouse spleen CD19+ B cells, control staining (background)
T1 construct: whole, on cells; Endogenous mouse CD20 on primary B cells; also called cell-surface CD20
T1 sequence (looked up): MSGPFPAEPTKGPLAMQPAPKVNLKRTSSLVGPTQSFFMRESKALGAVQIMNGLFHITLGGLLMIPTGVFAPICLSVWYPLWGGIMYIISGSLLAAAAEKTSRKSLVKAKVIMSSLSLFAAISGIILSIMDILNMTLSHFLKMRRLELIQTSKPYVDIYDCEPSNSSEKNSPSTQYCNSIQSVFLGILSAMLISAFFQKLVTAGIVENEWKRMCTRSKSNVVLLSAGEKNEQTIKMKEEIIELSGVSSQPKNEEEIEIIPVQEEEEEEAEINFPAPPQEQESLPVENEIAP

human CD20 [2] = target: T2, human CD20 (human, UniProt P11836 1-297); assay: flow cytometry, human blood B cells, secondary antibody alone (background)
T2 construct: whole, on cells; also called cell surface CD20
T2 sequence (looked up): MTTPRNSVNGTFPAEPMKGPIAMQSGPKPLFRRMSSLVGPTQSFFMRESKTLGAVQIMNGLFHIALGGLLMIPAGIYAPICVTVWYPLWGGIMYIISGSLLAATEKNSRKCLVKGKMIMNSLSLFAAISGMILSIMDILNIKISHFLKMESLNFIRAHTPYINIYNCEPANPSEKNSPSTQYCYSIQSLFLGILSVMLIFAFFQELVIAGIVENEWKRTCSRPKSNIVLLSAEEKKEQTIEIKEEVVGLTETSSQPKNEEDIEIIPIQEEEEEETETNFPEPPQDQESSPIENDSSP

human CD20 [3] = target: T2, human CD20; assay: flow cytometry, DHL-4 cells, secondary antibody alone (background)
human CD20 [4] = target: T2, human CD20; assay: flow cytometry, BJAB cells, secondary antibody alone (background)
human CD20 [5] = target: T2, human CD20; assay: flow cytometry, Raji cells, secondary antibody alone (background)
mouse CD20 [6] = target: T1, mouse CD20; assay: indirect immunofluorescence, flow cytometry, cultured mouse spleen B cells at 37 C; design: reference not given here
mouse CD20 [7] = target: T1, mouse CD20; assay: flow cytometry, mouse spleen CD19+ B cells, mAb at 0.5 µg/mL, isotype-specific secondary antibody
Description: Twelve mouse anti-mouse CD20 monoclonal antibodies, with representatives of each IgG isotype, were assessed for their ability to bind B cells and deplete them in vivo. Each monoclonal antibody reacted uniformly with CD19⁺ primary B cells in vitro with characteristic mean fluorescence intensities that were independent of monoclonal antibody isotype (FIG. 6A). When monoclonal antibody reactivity with primary B cells was assessed over a range of monoclonal antibody concentrations, most monoclonal antibodies reached saturating levels of staining when used at concentrations between 1-10 μg/mL (FIG. 6B). […] When all monoclonal antibodies were used at 0.5 μg/mL, each monoclonal antibody reacted uniformly with CD19⁺ primary B cells with characteristic low to high mean fluorescence intensities (FIG. 6C, Table 5). Similar results were obtained using a mouse CD20 cDNA-transfected pre-B cell line with anti-mouse Ig secondary antibody. Based on this analysis, the MB20-1 monoclonal antibody represented monoclonal antibodies with the lowest relative affinity/avidity, while the MB20-18 monoclonal antibody reacted strongly with B cells and stained B cells at the highest levels of all 12 anti-CD20 monoclonal antibodies (Table 5).

mouse CD20 (mouse) = target: T3, mouse CD20 (mouse) (UniProt P19437); assay: as above
T3 sequence (looked up): T1 sequence (looked up)

human CD20 [8] = target: T2, human CD20; assay: indirect immunofluorescence, flow cytometry, human blood B cells, saturating mAb
Description: (§1) Reactivity of human blood lymphocytes and the Raji, BJAB or DHL-4 B lymphoblastoid cell lines with anti-CD20 monoclonal antibodies at saturating concentrations or with secondary antibody alone (control). The anti-CD20 monoclonal antibodies were used at concentrations that were determined to be saturating and that gave optimal staining. 1F5, B9E9 and 1H4 (IgG2a) monoclonal antibodies were used as ascites fluid diluted 1:200. HB20-3, -4 and -25 monoclonal antibodies were used as tissue culture supernatant fluid. B1 monoclonal antibody was used at either 10 μg/mL of purified monoclonal antibody or as tissue culture supernatant fluid. In all cases, monoclonal antibody staining was visualized using PE-conjugated isotype-specific secondary antibodies with flow cytometry analysis. Values represent the mean linear fluorescence intensity of staining for each B cell population as determined by flow cytometry analysis. Results are representative of those obtained in ≧3 experiments.

human CD20 [9] = target: T2, human CD20; assay: indirect immunofluorescence, flow cytometry, BJAB cells, saturating mAb
Description: as §1

human CD20 [10] = target: T2, human CD20; assay: indirect immunofluorescence, flow cytometry, Raji cells, saturating mAb
Description: as §1

human CD20 [11] = target: T2, human CD20; assay: indirect immunofluorescence, flow cytometry, DHL-4 cells, saturating mAb
Description: as §1

“isotype-matched control monoclonal antibodies (antibody)” showed a B cell reactivity (mean linear fluorescence intensity) (mean linear fluorescence intensity) (mouse CD20 [1]) of less than 6.

secondary antibody alone (control) was tested, and the mean linear fluorescence intensity (mean linear fluorescence intensity) (human CD20 [2]) was 1, the mean linear fluorescence intensity (mean linear fluorescence intensity) (human CD20 [3]) was 1 and the mean linear fluorescence intensity (mean linear fluorescence intensity) (human CD20 [4]) was 10. It also gave a mean linear fluorescence intensity (mean linear fluorescence intensity) (human CD20 [5]) of 3.

B1: MB20-11 monoclonal antibody (antibody, part only; not given: light chain, V domains shown, part only)
VH: EVQLQESGPELVKPGASVKMSCKASGYKITDYNMHWVKQSHGKSLEWIGYIAPYNGGTTYNQKFKGKATLTVNKSSSTAYMELRSLTSEDSAVYYCAGALDYWGQGTSVTVSS
In the case of B1, the increase in antibody binding over time (mouse CD20 [6]) is reported as 97% and the B cell reactivity (mean linear fluorescence intensity) (mean linear fluorescence intensity) (mouse CD20 [7]) is reported as 158.

B2: MB20-16 monoclonal antibody (antibody, part only; not given: light chain, V domains shown, part only)
VH: EVQLQESGPELVKPGASVKMSCKASGYTFTDYNLHWVKQSHGQSLEWIGYINPNNGGATYNQKFTGKATLTVNRSSSTAYMELRSLTSDDSAVYYCAEIYDGYYWGQGTTLTVSS
B2 gave a B cell reactivity (mean linear fluorescence intensity) (mean linear fluorescence intensity) (mouse CD20 (mouse)) of 170.

B3: 1H4 (IgG2a) anti-CD20 monoclonal antibody (antibody)
chain 1: QVQLQQPGAELVKPGASVKMSCKTSGYTFTSYNVHWVKQTPGQGLEWIGAIYPGNGDTSFNQKFKGKATLTADKSSSTVYMQLSSLTSEDSAVYYCARSNYYGSSYVWFFDVWGAGTTGTGSS
chain 2: QIVLSQSPTILSASPGEKVTMTCRASSSVSYMDWYQQKPGSSPKPWIYATSNLASGVPARFSGSGSGTSYSLTISRVEAEDAATYYCQQWISNPPTFGAGTKLELK
B3 was tested, and the “mean linear fluorescence intensity” value (human CD20 [8]) was 75 mean linear fluorescence intensity, the “mean linear fluorescence intensity” value (human CD20 [9]) was 240 mean linear fluorescence intensity and the “mean linear fluorescence intensity” value (human CD20 [10]) was 244 mean linear fluorescence intensity. For the same molecule, the “mean linear fluorescence intensity” value (human CD20 [11]) was 98 mean linear fluorescence intensity.
